Patent US20030125515A1 (published 2003)

Experiments:
[1] = biological target: gp41 of HIV HXB2 (from the HXB2 gp160 gene, on pseudotyped virus) (HIV-1 HXB2, UniProt P04578 33-856); assay: cell-based or functional assay
[2] = biological target: gp41 of HIV JRFL (from the JRFL gp160 gene, on pseudotyped virus) (HIV-1 JRFL); assay: cell-based or functional assay

B1: end-locked five-helix protein having SEQ ID NO.: 2 (designed binder)
chain: MCGGGSQLLSGIVQQQNNLLRAIEAQQHLLQLTVWGIKQLQASGGSGGSWMEWDREINNYTSLIHSLIEESQNQQEKNEQELLSGGCGGSQLLSGIVQQQNNLLRAIEAQQHLLQLTVWGIKQLQASGGCGGSWMEWDREINNYTSLIHSLIEESQNQQEKNEQELLSGGSGGSQLLSGIVQQQNNLLRAIEAQQHLLQLTVWGIKQLQASGGGC
modifications: disulfide bond between the cysteine of the N-terminal linker and the cysteine of inside linker 2; disulfide bond between the cysteine of the C-terminal linker and the cysteine of inside linker 3 (as in FIG. 3b)
[1]
  EC50 in the virus-cell fusion assay (HIV luciferase assay, HOS-CD4 cells): 15 nM
[2]
  EC50 in the virus-cell fusion assay (HIV luciferase assay, HOS-CD4-CCR5 cells): 0.75 nM
